Molecular target: T1, TNKS2 ARC5 (Homo sapiens, UniProt Q9H2K2)
T1 construct: followed by TNKS2 ARC5 (1 μL, 100 μM stock); His6-GST; made in house; host or cells: E. coli
T1 sequence (Q9H2K2 whole entry, looked up): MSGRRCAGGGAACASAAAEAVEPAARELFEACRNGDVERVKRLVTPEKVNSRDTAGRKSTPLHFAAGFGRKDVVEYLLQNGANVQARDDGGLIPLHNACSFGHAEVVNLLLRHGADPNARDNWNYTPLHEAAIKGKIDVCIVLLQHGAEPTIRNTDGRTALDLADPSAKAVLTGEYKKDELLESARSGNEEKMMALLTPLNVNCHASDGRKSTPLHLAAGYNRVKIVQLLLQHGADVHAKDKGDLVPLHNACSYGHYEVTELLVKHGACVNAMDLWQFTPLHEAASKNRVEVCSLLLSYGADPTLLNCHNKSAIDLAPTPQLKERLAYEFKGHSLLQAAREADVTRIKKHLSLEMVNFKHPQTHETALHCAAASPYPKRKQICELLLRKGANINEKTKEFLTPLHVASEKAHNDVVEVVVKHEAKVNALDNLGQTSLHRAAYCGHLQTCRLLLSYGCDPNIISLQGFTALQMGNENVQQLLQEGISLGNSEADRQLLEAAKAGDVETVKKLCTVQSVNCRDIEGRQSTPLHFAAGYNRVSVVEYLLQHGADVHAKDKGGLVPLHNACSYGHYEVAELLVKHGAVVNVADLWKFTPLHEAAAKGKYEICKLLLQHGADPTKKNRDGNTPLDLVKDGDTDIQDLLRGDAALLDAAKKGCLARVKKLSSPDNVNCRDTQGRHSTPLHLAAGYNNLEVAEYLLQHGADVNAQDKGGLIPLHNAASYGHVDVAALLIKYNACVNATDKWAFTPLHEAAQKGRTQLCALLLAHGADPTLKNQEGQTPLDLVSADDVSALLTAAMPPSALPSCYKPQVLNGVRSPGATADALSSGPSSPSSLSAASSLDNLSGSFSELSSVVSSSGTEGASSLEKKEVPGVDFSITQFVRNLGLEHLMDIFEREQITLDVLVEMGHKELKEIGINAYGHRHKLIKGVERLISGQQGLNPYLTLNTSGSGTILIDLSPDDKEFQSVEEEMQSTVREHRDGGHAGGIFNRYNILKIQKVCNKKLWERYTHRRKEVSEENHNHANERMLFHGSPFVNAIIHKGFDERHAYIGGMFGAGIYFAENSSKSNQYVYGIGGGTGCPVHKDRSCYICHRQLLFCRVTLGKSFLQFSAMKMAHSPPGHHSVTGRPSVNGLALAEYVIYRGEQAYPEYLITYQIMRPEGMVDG
Assay: Differential scanning fluorimetry (DSF, thermal shift)
Format: binding
Conditions: ARC 20 μM + 3BP2 TBM peptide 200 μM, inflection point method
Protocol: Therefore, we chose TNKS2 ARC5 for screening by DSF, anticipating the largest signal window for measuring changes in Tm upon fragment binding.
We screened 1869 compounds in duplicate at a concentration of 500 μM, which we considered a reasonable compromise between having a sufficiently high concentration to identify weak binders while minimising the likelihood of false positives through fragment precipitation/aggregation and non-specific binding. The final DMSO concentration was 5%. We calculated melting temperatures using both the inflection point and the maximum peak of first derivative data methods. Both methods generally agreed, unless the melt curve was biphasic or misshapen, with slightly lower variability for the […] Tm determination method (see Materials and Methods for experimental and analysis details).
We determined the melting temperature for the unbound ARC (Tm, 0) from the mean of 12 reference melting curves per plate, with 5% DMSO only. We calculated the change in melting temperature (ΔTm) by subtracting the mean Tm, 0 from Tm, compound. We tested compounds in duplicate, defining fragments as hits if they conferred a ΔTm outside two standard deviations (2σ) from the mean, in one or both replicates. To check for consistency between plates, we ran triplicate peptide controls; however, we excluded peptide ΔTm values from the calculation of the mean ΔTm to avoid skewing the results. We observed mean ΔTm values (IP/1st derivative methods) of −0.127/−0.331 °C and σ as 0.997/1.19 °C. A hit cut-off of 2σ gave absolute shifts of +1.87/+2.05 °C for compounds that stabilised and −2.13/−2.71 °C for compounds that destabilised the ARC (Fig. 2B).
For the screen, a C1000 thermal cycler (Bio-Rad) was used to record melt curves. SYPRO Orange was purchased as a 5000 × stock in DMSO from Sigma Aldrich. The ICR fragment library was available as 100 mM stocks in DMSO, and dispensed (25 nL) using an ECHO acoustic liquid handling system into white 384-well PCR plates (Framestar, 4titude). Wells were backfilled with DMSO (225 nL). Buffer (2.75 μL, 25 mM HEPES-NaOH pH 7.5, 100 mM NaCl, 2 mM TCEP) was added, followed by TNKS2 ARC5 (1 μL, 100 μM stock) and then SYPRO orange dye (1 μL, 25×). The plate was centrifuged after the addition of each reagent (1 min, 1000 × g). Final assay concentrations were as follows: TNKS2 ARC5 (20 μM); fragment (500 μM); SYPRO Orange dye (5×); DMSO (5% v/v) in a total volume of 5 μL. Peptide control wells (3BP2 TBM 16-mer, 200 μM, sequence LPHLQRSPPDGQSFRSW with C-terminal tryptophan added for photometric concentration measurements, the N-terminus acetylated and the C-terminus amide-capped) were plated in triplicate, and there were 12 blank wells per plate, with DMSO only (250 nL, 5% v/v). Melt curves were recorded from 20–95 °C, with the temperature ramped by 0.5 °C every 15 s. Data were analysed using Vortex (Dotmatics) software and melting temperatures calculated from both the inflection point and the maximum peak of 1st-derivative data. Data points were excluded if the melt curve was poor, i.e., if there was no fluorescence signal above baseline, high fluorescence intensity throughout, or if the melt curve was shallow (<1000 rfu difference between baseline and peak maximum). The unbound melting temperature was determined from the mean of 12 reference melting curves, with 5% DMSO only. The change in melting temperature (ΔTm) was calculated by subtracting the mean Tm, 0 from Tm, compound. Compounds were tested in duplicate, and fragments were defined as hits if they gave a ΔTm outwith 2 σ from the mean in one or both replicates.
For the experiment shown in Fig. 2A, ARC and 3BP2 TBM peptide concentrations were 20 and 200 μM, respectively, in 50 mM HEPES-NaOH pH 7.5, 100 mM NaCl, 2 mM TCEP and a total volume of 25 μL. SYPRO Orange was added at 5×. Data were recorded from 4–95 °C, with the temperature ramped by 0.5 °C every 15 s, using a CFX384 thermal cycler (Bio-Rad). […]

ΔTm: 4.14 °C
Sequence: LPHLQRSPPDGQSFRSW [3BP2 16-mer peptide, 16-mer TBM peptide derived from 3BP2, W added for A280, N-terminus acetylated, C-terminus amide-capped; positive control, reference compound]
